# B1: Pistol ribozyme (parent)
# chain: GGGUCGUUGUUCCAUAAUCGCGUGGAUAUGGCACGCAAGUUUCUACCGGGCACCGUAAAUGUCCGACUGGAGCCGUUCGGGCGGCUAUAAACAGACCUCAGGCCCGAAGCGUGGCGGCACCUGCCGCCGGUGGUAAAAAAGAUCGGAAGAGCACACGUCU
# Variants of: B1
# Assay: aptazyme ON/OFF ratio, guanine; higher = stronger switching; co-transcriptional cleavage with and without guanine
row,Variant,aptazyme ON/OFF ratio
1,U7G G9C U11A C12G,1.65
2,U7G G9C U11A C12A,1.94
3,U7G G9C U11A C12U,1.65
4,U7G G9U,2.19
5,U7G G9C U10G C12A C13A,1.23
6,U7G G9C U10G C12A C13G,1.11
7,U7G G9C U10G C12A C13U,1.25
8,U7G G9C U10G U11G C12A C13G,1.13
9,U7G G9C U10G U11G C12A C13A,1.1
10,U7G G9C U10G U11G C12A C13U,1.12
11,U7G G9C U11A C12U C13A,1.42
12,U7G G9C U11A C12U C13G,1.33
13,U7G G9C U11A C12U C13U,1.32
14,U7G G9C U10G U11A C12A,1.18
15,U7G G9C U10G U11A C12U,1.19
16,U7G G9C U10G U11A C12G,1.28
17,U7G G9C U11A C13A,1.41
18,U7G G9C U11A C13U,1.62
19,U7G G9C U11A C13G,1.19
20,U7G G9C U10G C12U C13G,1.38
21,U7G G9C U10G C12U C13A,1.24
22,U7G G9C U10G C12U C13U,1.13
23,U7G G9C U10C U11A C13G,1.22
24,U7G G9C U10C U11A C13U,1.25

row,Variant,aptazyme ON/OFF ratio
1,U7G G9C U10C U11C C12U C13U,1.11
2,U7G G9C U10C U11C C12U C13G,1.07
3,U7G G9C U10C U11C C12U C13A,1.03
4,U7G G9C U11G C12G,1.31
5,U7G G9C U11G C12U,1.43
6,U7G G9C U11G C12A,1.41
7,U7G G9C U10C U11C C12A C13U,1.03
8,U7G G9C U10C U11C C12A C13G,1.09
9,U7G G9C U10C U11C C12A C13A,1.02
10,U7G G9C U10G U11A C12A C13G,1.12
11,U7G G9C U10G U11A C12A C13U,1.17
12,U7G G9C U10G U11A C12A C13A,1.13
13,U7G G9C U10G U11A C12G C13U,1.28
14,U7G G9C U10G U11A C12G C13G,1.18
15,U7G G9C U10G U11A C12G C13A,1.14
16,U7G G9C U10C U11G C13A,1.19
17,U7G G9C U10C U11G C13G,1.17
18,U7G G9C U10C U11G C13U,1.27
19,U7G G9C U10G U11A C12U C13U,1.23
20,U7G G9C U10G U11A C12U C13A,1.17
21,U7G G9C U10G U11A C12U C13G,1.28
22,U7G G9C U10G U11C C12U C13A,1.29
23,U7G G9C U10G U11C C12U C13G,1.26
24,U7G G9C U10G U11C C12U C13U,1.19

row,Variant,aptazyme ON/OFF ratio
1,U7G G9U C12G C13A,1.16
2,U7G G9U C12G C13G,1.22
3,U7G G9U C12G C13U,1.36
4,U7G G9C U10C U11G C12U C13U,1.34
5,U7G G9C U10C U11G C12U C13G,1.26
6,U7G G9C U10C U11G C12U C13A,1.33
7,U7G G9C U10G U11G C12G C13A,1.11
8,U7G G9C U10G U11G C12G C13U,1.12
9,U7G G9C U10G U11G C12G C13G,1.06
10,U7G G9C U10C U11C C12A,1.03
11,U7G G9C U10C U11C C12G,1.14
12,U7G G9C U10C U11C C12U,1.06
13,U7G G9C U10G U11G C13U,1.36
14,U7G G9C U10G U11G C13G,1.21
15,U7G G9C U10G U11G C13A,1.17
16,U7G G9C U10G U11A,1.37
17,U7G G9C U10G U11G,2.48
18,U7G G9C U10G U11C,1.17
19,U7G G9C U11C C12U C13G,1.27
20,U7G G9C U11C C12U C13A,1.37
21,U7G G9C U11C C12U C13U,1.25
22,U7G G9U U10A C12A,1.65
23,U7G G9U C12U C13A,1.28
24,U7G G9U C12U C13U,1.18

row,Variant,aptazyme ON/OFF ratio
1,U7G G9U C12U C13G,1.31
2,U7G G9C U10G C12U,1.38
3,U7G G9C U10G C12A,1.65
4,U7G G9C U10G C12G,1.51
5,U7G G9U C13U,1.45
6,U7G G9U C13G,1.2
7,U7G G9U C13A,1.38
8,U7G G9C U11G C12G C13A,1.17
9,U7G G9C U11G C12G C13G,1.36
10,U7G G9C U11G C12G C13U,1.29
11,U7G G9C U10G U11C C12A C13A,1.19
12,U7G G9C U10G U11C C12A C13G,1.23
13,U7G G9C U10G U11C C12A C13U,1.33
14,U7G G9C U10G C13G,1.23
15,U7G G9C U10G C13U,1.36
16,U7G G9C U10G C13A,1.41
17,U7G G9U U10A,3.84
18,U7G G9C U10C U11C C12G C13A,1.08
19,U7G G9C U10C U11C C12G C13U,1.06
20,U7G G9C U10C U11C C12G C13G,1.05
21,U7G G9U C12G,1.42
22,U7G G9U C12U,2.07
23,U7G G9U C12A,1.97
24,U7G G9C U11C C13A,1.42

row,Variant,aptazyme ON/OFF ratio
1,U7G G9C U11C C13U,1.39
2,U7G G9C U11C C13G,1.06
3,U7G G9C U11A C12G C13A,1.2
4,U7G G9C U11A C12G C13G,1.23
5,U7G G9C U11A C12G C13U,1.36
6,U7G G9C U11G C12A C13U,1.47
7,U7G G9C U11G C12A C13A,1.21
8,U7G G9C U11G C12A C13G,1.31
9,U7G G9U U10A C12A C13A,1.38
10,U7G G9U U10A C12A C13G,1.26
11,U7G G9U U10A C12A C13U,1.75
12,U7G G9U C12A C13U,1.14
13,U7G G9U C12A C13G,1.33
14,U7G G9U C12A C13A,1.46
15,U7G G9C U10G,1.89
16,U7G G9C U10G U11C C13A,1.24
17,U7G G9C U10G U11C C13G,1.16
18,U7G G9C U10G U11C C13U,1.15
19,U7G G9C U10G C12G C13G,1.18
20,U7G G9C U10G C12G C13A,1.28
21,U7G G9C U10G C12G C13U,1.31
22,U7G G9C U11C C12A C13G,1.28
23,U7G G9C U11C C12A C13A,1.42
24,U7G G9C U11C C12A C13U,1.5

row,Variant,aptazyme ON/OFF ratio
1,U7G G9C U11G C12U C13A,1.43
2,U7G G9C U11G C12U C13G,1.27
3,U7G G9C U11G C12U C13U,1.2
4,U7G G9C U10G U11C C12G C13G,1.07
5,U7G G9C U10G U11C C12G C13A,1.27
6,U7G G9C U10G U11C C12G C13U,1.21
7,U7G G9C U10G U11A C13A,1.18
8,U7G G9C U10G U11A C13U,1.24
9,U7G G9C U10G U11A C13G,1.16
10,U7G G9C U11C C12G,1.65
11,U7G G9C U11C C12U,2.15
12,U7G G9C U11C C12A,2.21
13,U7G G9C U10G U11G C12U C13U,1.24
14,U7G G9C U10G U11G C12U C13G,1.1
15,U7G G9C U10G U11G C12U C13A,1.15
16,U7G G9C U11C C12G C13G,1.07
17,U7G G9C U11C C12G C13A,1.35
18,U7G G9C U11C C12G C13U,1.36
19,U7G G9C U10C U11G C12U,1.57
20,U7G G9C U10C U11G C12A,1.14
21,U7G G9C U10C U11G C12G,1.1
22,U7G G9C U10C U11G,1.18
23,U7G G9C U10C U11C,1.17
24,U7G G9C U10G U11C C12A,1.69

row,Variant,aptazyme ON/OFF ratio
1,U7G G9C U10G U11C C12U,1.28
2,U7G G9C U10G U11C C12G,1.32
3,U7G G9C U11A C12A C13G,1.27
4,U7G G9C U11A C12A C13U,1.52
5,U7G G9C U11A C12A C13A,1.35
6,U7G G9C U10C U11G C12A C13A,1.09
7,U7G G9C U10C U11G C12A C13U,1.08
8,U7G G9C U10C U11G C12A C13G,1.13
9,U7G G9C U10C U11G C12G C13A,1.09
10,U7G G9C U10C U11G C12G C13G,1.08
11,U7G G9C U10C U11G C12G C13U,1.08
12,U7G G9C U10C U11C C13A,1.05
13,U7G G9C U10C U11C C13U,1.03
14,U7G G9C U10C U11C C13G,1.04
15,U7G G9C U11A,2.57
16,U7G G9C U11C,2.53
17,U7G G9C U11G,1.48
18,U7G G9C U11G C13G,1.31
19,U7G G9C U11G C13U,1.17
20,U7G G9C U11G C13A,1.29
21,U7G G9C U10G U11G C12A,1.05
22,U7G G9C U10G U11G C12G,1.07
23,U7G G9C U10G U11G C12U,1.32

# From the RNAGym collection of RNA variant scans (doi:10.1021/acssynbio.7b00057)
